For one data set, the system named is ZNF207 full-length WT. Kind of data set: EMSA. In general terms: In EMSA bound probe runs differently from free probe, usually more slowly.
The next data set concerns ZNF207 full-length K42E. Kind of data set: EMSA.

pKd: −log10 of the molar value.

The term pKd denotes −log10 of the Kd, conventionally taken in molar units. For U1 snRNA, the pKd is 7.31 with ZNF207 full-length WT and 7.22 in the data set with ZNF207 full-length K42E.

Values taken from publication PMC12952242.
